# Laboratory results: patent US20090016988
# Experiments:
# [1] = system: MPPT4 (proaerolysin with the activation sequence KVRRAR changed to the MMP2 site HPVGLLAR, 6xHis tag)
# [2] = system: MPPT5 (proaerolysin with the MMP2 site HPVGLLAR joined by a GG linker to the uPA site SGRSAQ in the)
# [3] = system: wild-type proaerolysin from Aeromonas hydrophila
# [4] = system: MPPT1 (proaerolysin with the furin site KVRRAR replaced by the uPA site SGRSAQ, and a His tag)
substance,measurement,setting,value
active MMP2 protease (EMD/Calbiochem),"digestion with MMP2 (Western blot, 48 hour incubation samples)",[1],complete digestion for MPPT4
same,"digestion with MMP2, 24 hours (silver stained SDS-PAGE)",[1],complete digestion for MPPT4 for all concentrations shown
same,Hemolytic titer after MMP2 digestion (hemolytic titer (wells with lysed cells)),[2],6.5
same,Hemolytic titer after MMP2 digestion (hemolytic titer (wells with lysed cells)),[3],0
same,"digestion with MMP2 (Western blot, 48 hour incubation samples)",[3],less than 50% digestion for PA
same,"digestion with MMP2, 2 hours (silver stained SDS-PAGE)",[3],PA is not measurably affected by MMP2
same,"digestion with MMP2, 24 hours (silver stained SDS-PAGE)",[3],a small amount of digestion for PA
urokinase-type plasminogen activator (uPA),"Hemolytic titer, 0.016 mg/mL uPA (hemolytic titer (wells with lysed cells))",[4],6
same,"Hemolytic titer, 0.04 mg/mL uPA (hemolytic titer (wells with lysed cells))",[4],7.5
same,"Hemolytic titer, 0.08 mg/mL uPA (hemolytic titer (wells with lysed cells))",[4],7.5
same,activation by uPA digestion (Coomassie stained SDS-PAGE),[4],"the MPPT1 sample digested with 1 µg of uPA showed an activated aerolysin band (˜48 kDa; lowest band), and a high molecular weight oligomer band"
same,conversion to aerolysin by 0.016 mg/mL uPA (SDS-PAGE),[4],MPPT1 was nearly 50% converted
same,"digestion with uPA, 120 minutes (Coomassie stained SDS-PAGE)",[4],"After 120 minutes, the MPPT1 is almost completely activated by 0.04 mg/mL uPA"
same,Hemolytic titer after uPA digestion (hemolytic titer (wells with lysed cells)),[2],7
same,Hemolytic titer after uPA digestion (hemolytic titer (wells with lysed cells)),[3],5
same,"Hemolytic titer, 0.016 mg/mL uPA (hemolytic titer (wells with lysed cells))",[3],0
same,"Hemolytic titer, 0.04 mg/mL uPA (hemolytic titer (wells with lysed cells))",[3],2.5
same,"Hemolytic titer, 0.08 mg/mL uPA (hemolytic titer (wells with lysed cells))",[3],6
same,activation by uPA digestion (Coomassie stained SDS-PAGE),[3],"No activated aerolysin band, and only a very faint high molecular weight oligomer band, was seen for the PA sample digested with 1 µg of uPA"
same,conversion to aerolysin by 0.016 mg/mL uPA (SDS-PAGE),[3],No PA was converted to aerolysin when treated with 0.016 mg/mL uPA under these conditions
same,"digestion with uPA, 2 hours (silver stained SDS-PAGE)",[3],"it is somewhat sensitive to uPA, though not to the degree seen for MPPT5"
same,"digestion with uPA, 120 minutes (Coomassie stained SDS-PAGE)",[3],whereas much less PA was activated
